In series [1] the test system is Glu107. Kind of series: other (circular dichroism). To be noted: 25 °C; 50 mM NaCl; none stated; 30 µM protein in 50 mM NaCl titrated with 0.05-0.1 M HCl or NaOH; transition between the more structured form (MSF) and the less structured form (LSF) of the double mutant. In general terms: Circular dichroism is the unequal absorption of left and right circularly polarised light.

Series [2] concerns Glu63. Kind of series: NMR. The following applies: 25 °C, not stated for the titration samples, folded, more structured form (MSF), signals were lost above pH 6.4 because the population of the structured form is low there.
In series [3] the test system is Glu105. Description: NMR. To be noted: 25 °C, not stated for the titration samples, folded, more structured form (MSF), signals were lost above pH 6.4 because the population of the structured form is low there.
Series [4] relates to Glu83. Kind of series: NMR. The following applies: 25 °C, not stated for the titration samples, folded, more structured form (MSF), signals were lost above pH 6.4 because the population of the structured form is low there.
In series [5] the test system is Glu107. Description: NMR. The following applies: 25 °C, not stated for the titration samples, folded, more structured form (MSF), signals were lost above pH 6.4 because the population of the structured form is low there.
The test system of series [6] is Glu68. Kind of series: NMR. To be noted: 25 °C, not stated for the titration samples, folded, more structured form (MSF), signals were lost above pH 6.4 because the population of the structured form is low there.
The subject of series [7] is Glu38. Kind of series: NMR. To be noted: 25 °C, not stated for the titration samples, folded, more structured form (MSF), signals were lost above pH 6.4 because the population of the structured form is low there.
Series [8] concerns Glu87. Description: NMR. The following applies: 25 °C, not stated for the titration samples, folded, more structured form (MSF), signals were lost above pH 6.4 because the population of the structured form is low there.
In series [9] the test system is Glu28. Kind of series: NMR. The following applies: 25 °C, not stated for the titration samples, folded, more structured form (MSF), signals were lost above pH 6.4 because the population of the structured form is low there.
In series [10] the test system is Glu104. Description: NMR. The following applies: 25 °C, not stated for the titration samples, folded, more structured form (MSF), signals were lost above pH 6.4 because the population of the structured form is low there.

Marks after values point to notes of the source that are not given here.

The term pKa denotes the pH at which an ionisable group is half protonated.

“DraK histidine kinase, extracellular sensor domain (ESD), E83L/E105L double mutant (Streptomyces coelicolor A3(2); E83L;E105L)”: the pKa in series [1] is 8.1*.

Regarding “DraK histidine kinase, extracellular sensor domain (ESD), wild type (Streptomyces coelicolor A3(2))”, the pKa in series [2] is listed as 4.5; in series [3] it was 5.5; in series [4], 5.3; in series [5] it was “above 6.4”; in series [6], 4.5; in [7] it was 4.3. The figures for the pKa in [8], in series [9] and in series [10] were 3.7, 3.9 and 4.6, respectively.

Values taken from paper PMC4159317.
